Publication PMC4794571

Columns and labels:
[1] = biological target: biotin-IgE (indirect labeling) (UniProt P01854); assay: microarray fluorescence; settings: indirect label, PBSMTB for IgE microarrays (full recipe not in material; PBS-based wash: 8.1 mM Na2HPO4, 137 mM NaCl, 1 mM MgCl2, pH 7.4), temperature not stated, thrombin …
[2] = biological target: Cy3-IgE (direct labeling) (UniProt P01854); assay: microarray fluorescence; settings: direct label, PBSMTB for IgE microarrays (full recipe not in material; PBS-based wash: 8.1 mM Na2HPO4, 137 mM NaCl, 1 mM MgCl2, pH 7.4), temperature not stated, thrombin …
[3] = biological target: IgE (cited assays) (human) (UniProt P01854); assay: filter binding; settings: PBSMTB for IgE microarrays (full recipe not in material; PBS-based wash: 8.1 mM Na2HPO4, 137 mM NaCl, 1 mM MgCl2, pH 7.4), temperature not stated, thrombin …, cited from earlier work
[4] = biological target: IgE (cited assays) (human) (UniProt P01854); assay: fluorescence anisotropy; settings: not immobilized; PBSMTB for IgE microarrays (full recipe not in material; PBS-based wash: 8.1 mM Na2HPO4, 137 mM NaCl, 1 mM MgCl2, pH 7.4); temperature not stated; thrombin …; cited from earlier work
[5] = biological target: IgE (cited assays) (human) (UniProt P01854); assay: SPR; settings: PBSMTB for IgE microarrays (full recipe not in material; PBS-based wash: 8.1 mM Na2HPO4, 137 mM NaCl, 1 mM MgCl2, pH 7.4), temperature not stated, thrombin …, cited from earlier work
[6] = G linker, G linker to array surface
[7] = A linker, A linker to array surface
[8] = T linker, T linker to array surface
[9] = C linker, C linker to array surface

GGGGCACGTTTATCCGTCCCTCCTAGTGGCGTGCCCC [IgE_17-4, G linker]
Kd [1, 6]: 29.5 nM
Kd [2, 6]: 86.5 nM

GGGGCACGTTTATCCGTCCCTCCTAGTGGCGTGCCCC [IgE_17-4, A linker]
Kd [1, 7]: 30.9 nM
Kd [2, 7]: 63.7 nM

GGGGCACGTTTATCCGTCCCTCCTAGTGGCGTGCCCC [IgE_17-4 (IgE_D17-4), T linker]
Kd [1, 8]: 29.5 nM
Kd ([2]; D/P 2.4, T linker 10-15, T linker to array surface): 66.3 nM

AGGGCACGTTTATCCGTCCCTCCTAGTGGCGTGCCCT [IgE_D17-4_DM1_37]
Kd [1, 8]: 29.9 nM
Kd [2, 8]: 82.3 nM

CACGTTTATCCGTCCCTCCTAGTGGCGTG [IgE_17-1, cited assay]
Kd ([3]; solution): 82 nM

TGGGCACGTTTATCCGTCCCTCCTAGTGGCGTGCCCC [IgE_D17-4_SM1]
Kd [1, 8]: 28.8 nM
Kd [2, 8]: 79.9 nM

CACGTTTATCCGTCCCTCCTAGTGGCGTG [IgE_17-1 (IgE_D17-1)]
Kd [1, 8]: 73.4 nM

GGGGCACGTTTATCCGTCCCTCCTAGTGGCGTGCCCC [IgE_17-4, C linker]
Kd [1, 9]: 30.8 nM
Kd [2, 9]: 61.8 nM

GGGGCACGTTTATCCGTCCCTCCTAGTGGCGTGCCCC [IgE_17-4, cited assays]
Kd ([3]; not immobilized): 9 nM
Kd [4]: 15 nM
Kd ([5]; aptamer immobilized on surface): 74.8 nM
Kd ([5]; aptamer not immobilized): 4.7 nM
